According to patent US20230416361A1 (MIROBIO, published 2023):
Positions count from the first letter of the chain named. Numbers in names are those of the source. Each block holds one binder with its values, some of them ahead of it.

Experiments:
[1] = molecular target: T1, cyno CD200RLa full length construct on cells (cynomolgus, UniProt A0A2K5W6R0 30-275); test: flow cytometry on transiently transfected HEK293T cells
T1 construct: whole, on cells; also called cynomolgus CD200RLa expressed on cells
T1 sequence: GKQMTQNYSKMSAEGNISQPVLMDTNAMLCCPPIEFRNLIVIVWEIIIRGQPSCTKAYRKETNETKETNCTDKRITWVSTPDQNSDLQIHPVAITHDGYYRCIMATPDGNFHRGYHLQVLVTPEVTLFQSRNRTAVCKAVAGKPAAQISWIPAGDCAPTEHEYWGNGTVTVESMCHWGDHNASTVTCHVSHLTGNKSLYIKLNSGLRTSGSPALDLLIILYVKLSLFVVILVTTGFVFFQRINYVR
Experimental: (§1) The binding of CD200R antibodies to human and cyno CD200R and CD200RLa constructs was assessed by flow cytometry of transiently transfected cells. CD200RLa has a charged transmembrane (TM) that is not expected to express well in the absence of appropriate binding partners. Therefore, in addition to the full length CD200RLa constructs, chimeric constructs were used consisting of the CD200RLa extracellular domain fused to mouse CD80 transmembrane and intracellular tail to enable cell surface expression.
(§2) HEK293T cells were plated out at 1 million cells per well in a 6 well plate the day before transfection. The following day cells were transfected with CD200R constructs using 2.5 μg plasmid DNA (a pcDNA3.4 vector containing the CD200R construct sequence) and 10 μl Lipofectamine 2000 (mixed in 200 μl Optimem for 5 minutes then added dropwise to cells). 48 hours after transfection, cells were collected by vigorous pipetting in cold PBS and 50,000 cells pelleted per well in 96 well U bottom plates.
(§3) Cells were then washed and stained for 30 minutes with a secondary staining mix containing a live/dead marker (Near IR LD, Biolegend cat #423106) and APC anti-hIgG (clone QA19A42, Biolegend cat #366906) or AF647 anti-mIgG1 (clone RMG1-1, cat #406618). As a control, cells were separately stained with the commercial anti-CD200R clone OX108 directly labelled with AF647 (Biolegend cat #329308). Finally, cells were washed and resuspended in FACS buffer for acquisition on a FACS Celesta flow cytometer.

[2] = molecular target: T2, human CD200RLa extracellular domain fused to mouse CD80 transmembrane and intracellular tail, on HEK293T cells (human; mouse, UniProt Q6Q8B3 24-239; Q00609 247-306, limits assumed); test: as above
T2 construct: extracellular domain;domain: transmembrane and intracellular tail; also called human CD200RLa chimeric construct
T2 sequence (looked up): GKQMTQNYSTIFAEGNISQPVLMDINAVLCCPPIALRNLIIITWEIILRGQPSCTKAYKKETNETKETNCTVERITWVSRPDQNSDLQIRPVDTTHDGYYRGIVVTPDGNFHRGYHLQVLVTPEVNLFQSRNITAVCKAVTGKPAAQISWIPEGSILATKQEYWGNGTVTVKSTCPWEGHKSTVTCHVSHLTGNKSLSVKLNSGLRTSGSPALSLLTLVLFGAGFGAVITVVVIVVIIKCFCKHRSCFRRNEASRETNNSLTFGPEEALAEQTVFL
Experimental: as §1, §2, §3

[3] = molecular target: T3, human CD200RLa full length construct on HEK293T cells (human, UniProt Q6Q8B3 24-271); test: as above
T3 construct: whole, on cells; also called CD200R1L
T3 sequence (looked up): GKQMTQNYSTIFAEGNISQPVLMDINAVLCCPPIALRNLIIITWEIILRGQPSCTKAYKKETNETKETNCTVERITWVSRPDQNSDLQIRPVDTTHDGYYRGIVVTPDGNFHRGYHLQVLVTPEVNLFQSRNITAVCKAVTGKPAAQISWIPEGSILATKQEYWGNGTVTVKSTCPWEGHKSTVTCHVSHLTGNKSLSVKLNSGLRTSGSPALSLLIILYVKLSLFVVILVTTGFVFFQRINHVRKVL
Experimental: as §1, §2, §3

[4] = molecular target: T4, monomeric soluble human CD200R extracellular domain (human, UniProt Q8TD46 29-265); test: BLI (Octet), antibody on anti-human Fc probes, monomeric CD200R in solution, 25 C, 1:1 global fit
T4 construct: extracellular domain; also called hCD200R; monomeric CD200R protein
T4 sequence (looked up): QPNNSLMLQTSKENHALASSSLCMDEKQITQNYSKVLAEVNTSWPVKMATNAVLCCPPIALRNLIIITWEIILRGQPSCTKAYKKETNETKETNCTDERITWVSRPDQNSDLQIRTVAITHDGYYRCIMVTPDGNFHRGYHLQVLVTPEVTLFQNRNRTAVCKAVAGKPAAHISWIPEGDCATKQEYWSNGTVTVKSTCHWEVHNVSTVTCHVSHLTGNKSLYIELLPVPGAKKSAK
Experimental: Humanised variant antibodies combining the different heavy and light variable domains described in Example 6 were produced by transient transfection of HEK293 cells. All antibodies were expressed on a human IgGI isotype with a P238D Fc mutation. The unpurified supernatants were analysed by Protein A-HPLC to determine the antibody concentrations, as a measure of expression yield. […] Binding affinity of humanized variants to human CD200R was assessed by bio-layer interferometry on an Octet R4 instrument. Each antibody was captured directly onto anti-human Fc capture probes (Sartorius 18-5060) for 60 sec followed by baseline setting in assay buffer (DPBS, 0.01% Polysorbate-20). Association of monomeric CD200R protein to immobilised antibodies was measured in 4 different protein concentrations (300, 100, 30 and 10 nM in assay buffer) at 25° C., with an association time of 120s and dissociation of 120s in assay buffer only. A reference probe with no antibody immobilised was used for background subtraction. Kinetic rate constants and binding KDs were calculated using Octet Analysis Studio 12 software. Global curve fitting based on all 4 concentrations using a 1:1 model was performed, from which kon and koff were obtained to calculate KD using the relationship KD=koff/kon.

[5] = molecular target: T4, monomeric soluble human CD200R …; test: SPR, captured antibody, soluble monomeric receptor injected, single cycle kinetics, 37 C
Experimental: (§4) The binding affinity and kinetics of the CD200R antibodies of the present disclosure to human or cynomolgus CD200R were determined by surface plasmon resonance (SPR) using the Biacore T200 (GE Healthcare). Mouse antibody capture kit (GE Healthcare) was used to coat a Series S CM5 Sensor Chip (GE Healthcare) with polyclonal anti-mouse IgG.
(§5) Anti-CD200R antibody was captured onto the biosensor surface and a negative control antibody (clone Mopc21; Biolegend) captured in the reference channel. Various concentrations of monomeric soluble human CD200R extracellular domain, soluble cynomolgus macaque CD200R1 extracellular domain or soluble cynomolgus macaque CD200RLa (a highly homologous activating receptor) were injected over the immobilized antibodies in the buffer 10 mM Hepes, 150 mM NaCl, 0.005% v/v Surfactant P20, pH 7.4 (HBS-P) at 37° C., in a single cycle kinetics analysis. Association and dissociation rates were fitted using BiaEvaluation Software (GE Healthcare) after reference and blank subtractions, and dissociation constants were calculated (Table 2).

[6] = molecular target: T5, soluble cynomolgus macaque CD200R1 extracellular domain (cynomolgus macaque, UniProt G7NZT0 29-266); test: as above
T5 construct: extracellular domain; also called Cynomolgus CD200R
T5 sequence: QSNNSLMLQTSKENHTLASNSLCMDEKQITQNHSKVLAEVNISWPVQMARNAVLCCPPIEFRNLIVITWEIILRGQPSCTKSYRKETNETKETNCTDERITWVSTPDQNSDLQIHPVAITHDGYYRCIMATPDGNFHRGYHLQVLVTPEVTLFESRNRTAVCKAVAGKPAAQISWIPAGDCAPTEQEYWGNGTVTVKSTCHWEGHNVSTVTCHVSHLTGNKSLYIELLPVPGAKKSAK
Experimental: as §4, §5

[7] = molecular target: T6, extracellular domain of cyno CD200R (SinoBiological 11232-C08H, Met1-Leu267) (cynomolgus, UniProt G7NZT0 25-268); test: SPR (Biacore), antibody captured by anti-human Fc, CD200R extracellular domain injected, single cycle kinetics, 25 C
T6 construct: range 1-267; Bought protein
T6 sequence: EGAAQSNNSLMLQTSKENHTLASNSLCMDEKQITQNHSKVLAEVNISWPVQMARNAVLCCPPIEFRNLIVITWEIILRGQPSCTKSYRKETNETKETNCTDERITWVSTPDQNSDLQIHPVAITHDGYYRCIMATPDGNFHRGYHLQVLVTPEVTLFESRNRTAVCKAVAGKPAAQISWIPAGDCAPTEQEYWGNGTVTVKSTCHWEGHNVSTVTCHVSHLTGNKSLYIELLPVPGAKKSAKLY
Experimental: This example investigates in vitro CD200R binding of anti-CD200R antibodies by surface plasmon resonance. Surface plasmon resonance binding experiments with purified anti-CD200R antibody (expressed on a hIgG1 isotype with a P238D Fc mutation) were performed using the Biacore T200 and 8K+instruments. Anti-human Fc antibody (Life Technologies H10500) was amine-coupled to a C1 sensor chip using standard amine-coupling chemistry. Residual activated carboxyls were blocked with ethanolamine. Antibodies with a human Fc were then captured on these surfaces.
To assess the binding of hu2131_v20_D56S antibody and variants (antibody hu213l_Q1E and antibody hu2131_Q1E_M99G) to the extracellular domains of human CD200R (Met29-Leu243) and cyno CD200R (SinoBiological 11232-C08H, Metl-Leu267), 10-30 RUs of antibody were captured. CD200R proteins were diluted into running buffer (10 mM HEPES, 150 mM NaCl, 3 mM EDTA, 0.01% Polysorbate 20, pH 7.4 with 0.1 mg/mL BSA) (full-length antibody sequences are disclosed in Table 10). Five three-fold serial dilutions were performed for each CD200R, with highest concentration being 100 nM. Samples were injected using a single cycle kinetics scheme (Karlsson Anal Biochem et al 2006). Data were analyzed using Biacore Insight Evaluation Software and fit to a simple kinetic model, from which kon and koff were obtained to calculate KD using the relationship KD=koff/kon. Experiments were run at 25° C.

B2: anti-CD200R antibody clone 2.2.7 (mIgG1k isotype) (antibody, V domains shown)
VH: QVQLKESGPGLVAPSQSLSITCTVSGFSLTSYGVHWVRQLPGKGLEWLGVIWAGGGTNYNSALMSRLSISKDNSKSQVFLKMNRLQTDDTAIYYCAREGLPRAMDYWGQGTSVTVSS
VL: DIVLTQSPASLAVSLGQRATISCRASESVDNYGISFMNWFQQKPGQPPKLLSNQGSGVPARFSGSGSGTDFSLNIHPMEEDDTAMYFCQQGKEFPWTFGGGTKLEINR
notes: Murine hybridoma antibody, IgG1 kappa
Kd [5]: 27.6 nM
Kd [6]: 159 nM

B3: Antibody hu2131_Q1E hIgG1k P238D (antibody)
heavy: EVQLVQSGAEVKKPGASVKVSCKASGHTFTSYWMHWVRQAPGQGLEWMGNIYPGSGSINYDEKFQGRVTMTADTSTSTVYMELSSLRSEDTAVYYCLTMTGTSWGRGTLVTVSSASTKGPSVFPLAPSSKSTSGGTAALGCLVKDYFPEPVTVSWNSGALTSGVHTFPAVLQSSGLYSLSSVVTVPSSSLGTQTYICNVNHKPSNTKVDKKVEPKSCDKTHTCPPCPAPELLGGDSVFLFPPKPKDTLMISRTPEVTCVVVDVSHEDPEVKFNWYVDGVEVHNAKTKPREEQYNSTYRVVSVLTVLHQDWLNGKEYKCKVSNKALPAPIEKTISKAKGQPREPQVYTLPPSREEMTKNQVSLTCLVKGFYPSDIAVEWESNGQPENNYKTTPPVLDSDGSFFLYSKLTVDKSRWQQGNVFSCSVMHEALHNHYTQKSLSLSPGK
light: DIQMTQSPSSLSVSVGDRVTITCQASQGTPINLHWFQQKPGKAPKLLISGASNLESGVPSRFSGSGSGTEFTFTISSLQPEDAATYYCLQFTYIPWTFGQGTKLEIKRTVAAPSVFIFPPSDEQLKSGTASVVCLLNNFYPREAKVQWKVDNALQSGNSQESVTEQDSKDSTYSLSSTLTLSKADYEKHKVYACEVTHQGLSSPVTKSFNRGEC
Kd [7]: ≤ 0.0392 nM
koff [7]: ≤ 1e-05 s⁻¹
kon [7]: 255000 M⁻¹ s⁻¹

B7: Antibody I-4P (antibody, human IgG4 S228P, kappa, V domains shown)
VH: QVQLVQSGAEVKKPGASVKVSCKASGFSFSSGYYMAWVRQAPGQGLEWMGLIGVGSGSLWYAQKFQGRVTMTRDTSTSTVYMELSSLRSEDTAVYYCARHFALSDPFNLWGQGTLVTVSS
VL: EIVLTQSPDFQSVTPKEKVTITCQASESIDSYLLWYQQKPDQSPKLLIKQASTLASGVPSRFSGSGSGTDFTLTINSLEAEDAATYYCQNYYDISSNDFGGGTKVEIKR
notes: also called AbI-4P; J-4P
Kd [4]: 2.16 nM

Now from value to binder, other results behind:

binding result [1]: no binding (tested: 10 ug/ml)
binding result [2]: no binding (tested: 10 ug/ml)
binding result [3]: no binding (tested: 10 ug/ml)
B1: hu2131_v20 (antibody, human IgG1, V domains shown)
VH: QVQLVQSGAEVKKPGASVKVSCKASGHTFTSYWMHWVRQAPGQGLEWMGNIYPGSGSINYDEKFQGRVTMTADTSTSTVYMELSSLRSEDTAVYYCLTMTGTSWGRGTLVTVSS
VL: DIQMTQSPSSLSVSVGDRVTITCQASQGTPINLHWFQQKPGKAPKLLISGASNLEDGVPSRFSGSGSGTEFTFTISSLQPEDAATYYCLQFTYIPWTFGQGTKLEIK
Kd [4]: 0.00276 nM

Kd [6]: 60 nM
B4: anti-CD200R antibody clone 26.1.2 (mIgG1k isotype) (antibody, V domains shown)
VH: EVQLQQSGPELVKPGASVKMSCKASGYTFTSYVMHWVKQKPGQGLEWIGYIHPYNDDIKHNEKFKDKATLTSAKSSSTVYMELSSLTSEDSAVYYCAREEYYGSRFAYWGQGTLVTVSA
VL: DIVLTQSPASLAVSLGQRATISCRASKSVRTSGYSYLHWYQQKPGQPPKLLIYLASNLESGVPARFSGSGSGTDFTLNIHPVEEEDAATYYCQYSGELPFTFGGGTKLEIKR
notes: as for B2
Kd [5]: 0.7 nM

Kd [6]: 0.0015 nM
B5: anti-CD200R antibody clone 3.10.2 (mIgG1k isotype) (antibody, V domains shown)
VH: QVQLQQPGSELVRPGASVKLSCKASGYTFTSYWMHWVKQRPGQGLEWIGNIFPGSDTTNYDEKFKSKAIMTVDISSSTVYMHLSSLTSEDSAVYYCITYTGAYWGQGTLVTVSA
VL: DVQMIQSPSSLSASMGDIVTMTCQASQGTNINLHWFQQKPGKAPKLLISGGSNLEDGVPSRFSGSRYGTDFTLTISSLEDEDMATYFCLQFTYLPWTFGGGTKLDIKR
notes: as for B2
Kd [5]: 0.4 nM

Kd [6]: 0.708 nM
B6: anti-CD200R antibody clone 7.12.2 (mIgG1k isotype) (antibody, V domains shown)
VH: QVQLQQPGSELVRPGASVKLSCKASGYTFTSYWMHWVKQRPGQGLEWIGNIYPGSGTTNYDEKFKSKATLTVDTSSSTAYMQISSLTSEDSAVYYCTTGTSTYWGQGTLVTVSA
VL: B5 VL with M15L, N30S, H34N, S49Y, G51A, S52V, I75V, F91H, D105E
notes: as for B2
Kd [5]: 2.9 nM
